Values belong to the binder of their own block, whether it stands above or below them.
Tests used:
Test in all cases: two-hybrid library CCNG1;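 note: natural log of median RNA to DNA barcode read ratio; higher means stronger binding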
4H3961-bN = target: T1, 4H3961-bN; conditions: mean of both orientations
T1 chain: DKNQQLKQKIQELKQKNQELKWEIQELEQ

4H4001-bN = target: T2, 4H4001-bN
T2 chain: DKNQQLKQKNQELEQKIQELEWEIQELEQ

4H470-bN = target: T3, 4H470-bN
T3 chain: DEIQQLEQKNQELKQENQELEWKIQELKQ

4H2702-bH = target: T4, 4H2702-bH
T4 chain: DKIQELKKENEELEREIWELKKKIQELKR

4H3010-bH = target: T5, 4H3010-bH
T5 chain: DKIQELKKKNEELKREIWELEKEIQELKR

4H3112-bH = target: T6, 4H3112-bH
T6 chain: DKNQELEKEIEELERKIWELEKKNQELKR

4H3427-bH = target: T7, 4H3427-bH
T7 chain: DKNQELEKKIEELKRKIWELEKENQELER

4H346-bH = target: T8, 4H346-bH
T8 chain: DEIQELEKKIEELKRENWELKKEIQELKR

4H3926-bH = target: T9, 4H3926-bH
T9 chain: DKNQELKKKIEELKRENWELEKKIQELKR

4H4073-bH = target: T10, 4H4073-bH
T10 chain: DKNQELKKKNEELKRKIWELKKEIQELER

4H457-bH = target: T11, 4H457-bH
T11 chain: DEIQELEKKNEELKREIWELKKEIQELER

4H575-bH = target: T12, 4H575-bH
T12 chain: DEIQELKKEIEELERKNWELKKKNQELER

4H683-bH = target: T13, 4H683-bH
T13 chain: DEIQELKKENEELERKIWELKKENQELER

4H754-bH = target: T14, 4H754-bH
T14 chain: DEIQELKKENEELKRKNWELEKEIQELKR

4H780-bH = target: T15, 4H780-bH
T15 chain: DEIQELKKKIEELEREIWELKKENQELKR

4H797-bH = target: T16, 4H797-bH
T16 chain: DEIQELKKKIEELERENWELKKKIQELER

4H855-bH = target: T17, 4H855-bH
T17 chain: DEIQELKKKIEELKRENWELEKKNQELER

4H918-bH = target: T18, 4H918-bH
T18 chain: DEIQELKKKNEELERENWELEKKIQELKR

4H953-bH = target: T19, 4H953-bH
T19 chain: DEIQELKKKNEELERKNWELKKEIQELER

4H968-bH = target: T20, 4H968-bH
T20 chain: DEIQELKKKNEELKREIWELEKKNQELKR

4H3189-bN = target: T21, 4H3189-bN
T21 chain: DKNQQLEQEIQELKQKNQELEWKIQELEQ

4H331-bN = target: T22, 4H331-bN
T22 chain: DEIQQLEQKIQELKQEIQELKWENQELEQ

4H3606-bN = target: T23, 4H3606-bN
T23 chain: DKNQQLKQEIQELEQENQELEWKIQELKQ

4H370-bN = target: T24, 4H370-bN
T24 chain: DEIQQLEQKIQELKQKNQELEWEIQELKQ

4H3782-bN = target: T25, 4H3782-bN
T25 chain: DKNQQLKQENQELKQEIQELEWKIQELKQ

4H3843-bN = target: T26, 4H3843-bN
T26 chain: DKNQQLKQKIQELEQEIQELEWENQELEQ

4H462-bN = target: T27, 4H462-bN
T27 chain: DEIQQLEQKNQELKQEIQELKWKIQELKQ

4H568-bN = target: T28, 4H568-bN
T28 chain: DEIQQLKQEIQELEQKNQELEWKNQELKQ

4H607-bN = target: T29, 4H607-bN
T29 chain: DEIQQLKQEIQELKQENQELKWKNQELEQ

4H687-bN = target: T30, 4H687-bN
T30 chain: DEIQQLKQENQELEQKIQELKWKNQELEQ

4H72-bN = target: T31, 4H72-bN
T31 chain: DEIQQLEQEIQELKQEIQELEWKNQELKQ

4H797-bN = target: T32, 4H797-bN
T32 chain: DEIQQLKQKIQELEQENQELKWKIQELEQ

4H883-bN = target: T33, 4H883-bN
T33 chain: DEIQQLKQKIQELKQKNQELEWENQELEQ

4H918-bN = target: T34, 4H918-bN
T34 chain: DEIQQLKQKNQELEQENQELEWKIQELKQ

4H953-bN = target: T35, 4H953-bN
T35 chain: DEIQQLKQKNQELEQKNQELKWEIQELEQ

4H967-bN = target: T36, 4H967-bN
T36 chain: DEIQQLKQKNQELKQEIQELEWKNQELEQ

P5bHq = target: T37, P5bHq
T37 chain: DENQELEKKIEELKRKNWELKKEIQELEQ

4H2588-bA = target: T38, 4H2588-bA
T38 chain: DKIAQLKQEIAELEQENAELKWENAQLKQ

4H2692-bA = target: T39, 4H2692-bA
T39 chain: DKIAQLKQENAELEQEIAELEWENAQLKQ

4H2717-bA = target: T40, 4H2717-bA
T40 chain: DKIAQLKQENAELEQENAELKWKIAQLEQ

4H2839-bA = target: T41, 4H2839-bA
T41 chain: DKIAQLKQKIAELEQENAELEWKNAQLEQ

4H2915-bA = target: T42, 4H2915-bA
T42 chain: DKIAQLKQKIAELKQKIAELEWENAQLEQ

4H3057-bA = target: T43, 4H3057-bA
T43 chain: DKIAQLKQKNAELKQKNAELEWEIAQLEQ

4H319-bA = target: T44, 4H319-bA
T44 chain: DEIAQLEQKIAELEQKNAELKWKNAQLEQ

4H3277-bA = target: T45, 4H3277-bA
T45 chain: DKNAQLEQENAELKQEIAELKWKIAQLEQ

4H348-bA = target: T46, 4H348-bA
T46 chain: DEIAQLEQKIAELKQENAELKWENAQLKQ

4H40-bA = target: T47, 4H40-bA
T47 chain: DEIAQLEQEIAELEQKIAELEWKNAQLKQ

4H477-bA = target: T48, 4H477-bA
T48 chain: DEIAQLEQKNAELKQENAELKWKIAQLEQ

4H492-bA = target: T49, 4H492-bA
T49 chain: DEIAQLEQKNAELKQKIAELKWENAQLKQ

4H741-bA = target: T50, 4H741-bA
T50 chain: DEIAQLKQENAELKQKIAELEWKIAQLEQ

4H2673-bH = target: T51, 4H2673-bH
T51 chain: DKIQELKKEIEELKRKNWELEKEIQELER

4H56-bA = target: T52, 4H56-bA
T52 chain: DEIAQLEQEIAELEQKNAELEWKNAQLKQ

P6A = target: T53, P6A
T53 chain: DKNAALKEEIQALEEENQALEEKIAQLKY

P7A = target: T54, P7A
T54 chain: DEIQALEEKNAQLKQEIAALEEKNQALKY

P8A = target: T55, P8A
T55 chain: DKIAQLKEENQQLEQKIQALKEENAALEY

P9A = target: T56, P9A
T56 chain: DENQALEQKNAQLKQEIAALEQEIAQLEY

4H3175-bA = target: T57, 4H3175-bA
T57 chain: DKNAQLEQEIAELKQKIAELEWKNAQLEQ

4H3298-bA = target: T58, 4H3298-bA
T58 chain: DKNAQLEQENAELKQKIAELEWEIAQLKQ

4H3462-bA = target: T59, 4H3462-bA
T59 chain: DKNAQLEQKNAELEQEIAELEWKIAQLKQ

4H3497-bA = target: T60, 4H3497-bA
T60 chain: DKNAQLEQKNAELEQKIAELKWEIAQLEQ

4H3613-bA = target: T61, 4H3613-bA
T61 chain: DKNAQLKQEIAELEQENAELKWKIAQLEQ

4H3628-bA = target: T62, 4H3628-bA
T62 chain: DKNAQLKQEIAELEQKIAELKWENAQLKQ

4H3926-bA = target: T63, 4H3926-bA
T63 chain: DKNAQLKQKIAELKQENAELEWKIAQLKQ

4H591-bA = target: T64, 4H591-bA
T64 chain: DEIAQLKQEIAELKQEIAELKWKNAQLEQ

4H626-bA = target: T65, 4H626-bA
T65 chain: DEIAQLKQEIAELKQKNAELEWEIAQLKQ

4H906-bA = target: T66, 4H906-bA
T66 chain: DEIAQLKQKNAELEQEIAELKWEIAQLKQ

Binder: DKIQELKKENEELEREIWELKKKIQELKR [4H2702-bH]
- interaction score (4H2702-bH): 1.55
- interaction score (4H3010-bH): 1.37
- interaction score (4H3112-bH): 0.549
- interaction score (4H3427-bH): 0.468
- interaction score (4H346-bH): 0.405
- interaction score (4H3926-bH): 0.525
- interaction score (4H4073-bH): 0.92
- interaction score (4H457-bH): 1.57
- interaction score (4H575-bH): -2.01
- interaction score (4H683-bH): -0.558
- interaction score (4H754-bH): -0.588
- interaction score (4H780-bH): -0.871
- interaction score (4H797-bH): -0.247
- interaction score (4H855-bH): -0.0377
- interaction score (4H918-bH): -0.77
- interaction score (4H953-bH): 0.896
- interaction score (4H968-bH): 0.8

Binder: DKIAQLKQEIAELEQENAELKWENAQLKQ [4H2588-bA]
- interaction score (4H2588-bA): 1.71
- interaction score (4H2692-bA): -0.738
- interaction score (4H2717-bA): 0.0896
- interaction score (4H2839-bA): 0.846
- interaction score (4H2915-bA): 0.571
- interaction score (4H3057-bA): -0.114
- interaction score (4H319-bA): 0.789
- interaction score (4H3277-bA): -0.938
- interaction score (4H348-bA): 1.27
- interaction score (4H40-bA): -1.21
- interaction score (4H477-bA): -1.19
- interaction score (4H492-bA): 0.34
- interaction score (4H741-bA): -0.854

Binder: DKIQELKKEIEELKRKNWELEKEIQELER [4H2673-bH]
- interaction score (4H2673-bH): -0.111
- interaction score (4H2702-bH): -0.671
- interaction score (4H3010-bH): 2.11
- interaction score (4H3112-bH): -0.64
- interaction score (4H3427-bH): -0.449
- interaction score (4H346-bH): -0.803
- interaction score (4H3926-bH): 0.192
- interaction score (4H4073-bH): 0.575
- interaction score (4H457-bH): -0.154
- interaction score (4H56-bA): 0.863
- interaction score (4H575-bH): -0.762
- interaction score (4H683-bH): 0.639
- interaction score (4H754-bH): -1.99
- interaction score (4H780-bH): -0.56
- interaction score (4H797-bH): -0.55
- interaction score (4H855-bH): -0.854
- interaction score (4H918-bH): -0.87
- interaction score (4H953-bH): -1.62
- interaction score (4H968-bH): -0.933

Further lines, results first:

- interaction score (4H3961-bN): -1.14
- interaction score (4H4001-bN): -0.763
- interaction score (4H470-bN): -1.5
Binder: DKNQQLKQKIQELKQKNQELKWEIQELEQ [4H3961-bN]

- interaction score (4H3189-bN): -1.1
- interaction score (4H331-bN): -1.93
- interaction score (4H3606-bN): -0.893
- interaction score (4H370-bN): -1.02
- interaction score (4H3782-bN): -1.38
- interaction score (4H3843-bN): -1.81
- interaction score (4H4001-bN): -1.58
- interaction score (4H462-bN): -0.731
- interaction score (4H568-bN): -0.877
- interaction score (4H607-bN): -2.38
- interaction score (4H687-bN): -0.938
- interaction score (4H72-bN): -0.483
- interaction score (4H797-bN): -0.933
- interaction score (4H883-bN): -1.35
- interaction score (4H918-bN): -0.805
- interaction score (4H953-bN): -1.88
- interaction score (4H967-bN): -1.41
- interaction score (P5bHq): -2.13
Binder: DKNQQLEQEIQELKQKNQELEWKIQELEQ [4H3189-bN]

- interaction score (P6A): -0.792
- interaction score (P7A): -0.197
- interaction score (P8A): -0.152
- interaction score (P9A): -0.171
Binder: DKNAALKEEIQALEEENQALEEKIAQLKY [P6A]

- interaction score (4H3175-bA): 0.672
- interaction score (4H3277-bA): -0.717
- interaction score (4H3298-bA): -0.491
- interaction score (4H3462-bA): -0.259
- interaction score (4H3497-bA): 0
- interaction score (4H3613-bA): -0.277
- interaction score (4H3628-bA): -0.531
- interaction score (4H3926-bA): -0.662
- interaction score (4H4001-bN): -0.893
- interaction score (4H591-bA): -1.55
- interaction score (4H626-bA): -2
- interaction score (4H906-bA): -1.09
Binder: DKNAQLEQEIAELKQKIAELEWKNAQLEQ [4H3175-bA]

Source: paper PMC10397247
